Results reported in patent US12186374B2 (Sanofi-Aventis Deutschland GmbH, priority 2014, dated 2025).

Test system: patients with T2DM
Test: Treatment-emergent adverse events incl. serious, fatal, leading to discontinuation (Example 3)
[1] = PT ≥3% in any treatment group, Safety population

Gly(A21)-Arg(B31)-Arg(B32)-human insulin [Insulin Glargine]
Diarrhoea, % of patients (Example 3): 2.7%
Incidence of gastrointestinal disorder (System organ class) events (Example 3): 7.9%
Nasopharyngitis, % of patients (Example 3): 8.8%
Nausea, % of patients (Example 3): 0.5%
Patients discontinuing due to nausea, number (Example 3): none
Patients reporting treatment-emergent adverse events, % (Example 3): 52.3%
Patients reporting treatment-emergent adverse events, number (Example 3): 191 patients
Patients who withdrew from treatment due to TEAEs, % (Example 3): 0.8%
Patients who withdrew from treatment due to TEAEs, number (Example 3): 3 patients
Patients with at least 1 TEAE leading to death (Example 3): 2 patients
Serious TEAEs, % of patients (Example 3): 4.9%
Serious TEAEs, number of patients (Example 3): 18 patients
Vomiting, % of patients (Example 3): 0.5%
Common TEAE, PT Diarrhoea, number of patients [1]: 10 n
Common TEAE, PT Diarrhoea, percentage of patients [1]: (2.7%)
Common TEAE, PT Headache, number of patients [1]: 10 n
Common TEAE, PT Headache, percentage of patients [1]: (2.7%)
Common TEAE, PT Influenza, number of patients [1]: 11 n
Common TEAE, PT Influenza, percentage of patients [1]: (3.0%)
Common TEAE, PT Nasopharyngitis, number of patients [1]: 32 n
Common TEAE, PT Nasopharyngitis, percentage of patients [1]: (8.8%)
Common TEAE, PT Nausea, number of patients [1]: 2 n
Common TEAE, PT Nausea, percentage of patients [1]: (0.5%)
Common TEAE, PT Upper respiratory tract infection, number of patients [1]: 11 n
Common TEAE, PT Upper respiratory tract infection, percentage of patients [1]: (3.0%)
Common TEAE, PT Vomiting, number of patients [1]: 2 n
Common TEAE, PT Vomiting, percentage of patients [1]: (0.5%)
Common TEAE, SOC Gastrointestinal disorders, number of patients [1]: 29 n
Common TEAE, SOC Gastrointestinal disorders, percentage of patients [1]: (7.9%)
Common TEAE, SOC Infections and infestations, number of patients [1]: 112 n
Common TEAE, SOC Infections and infestations, percentage of patients [1]: (30.7%)
Common TEAE, SOC Nervous system disorders, number of patients [1]: 19 n
Common TEAE, SOC Nervous system disorders, percentage of patients [1]: (5.2%)
% of patients experiencing TEAE(s) leading to permanent treatment discontinuation: Cardiopulmonary failure (PT, Safety population): (0.3%)
% of patients experiencing TEAE(s) leading to permanent treatment discontinuation: Gallbladder cancer (PT, Safety population): (0.3%)
% of patients experiencing TEAE(s) leading to permanent treatment discontinuation: Pregnancy (PT, Safety population): (0.3%)
% of patients experiencing serious TEAE(s): Benign prostatic hyperplasia (PT, Safety population): (0.3%)
% of patients experiencing serious TEAE(s): Cardiac failure congestive (PT, Safety population): (0.3%)
% of patients experiencing serious TEAE(s): Cardiopulmonary failure (PT, Safety population): (0.3%)
% of patients experiencing serious TEAE(s): Chest discomfort (PT, Safety population): (0.3%)
% of patients experiencing serious TEAE(s): Cholecystitis acute (PT, Safety population): (0.3%)
% of patients experiencing serious TEAE(s): Gallbladder cancer (PT, Safety population): (0.3%)
% of patients experiencing serious TEAE(s): Glaucoma (PT, Safety population): (0.3%)
% of patients experiencing serious TEAE(s): Hypertension (PT, Safety population): (0.3%)
% of patients experiencing serious TEAE(s): Hypoglycaemia (PT, Safety population): (0.3%)
% of patients experiencing serious TEAE(s): Intervertebral disc protrusion (PT, Safety population): (0.3%)
% of patients experiencing serious TEAE(s): Kaposi’s sarcoma (PT, Safety population): (0.3%)
% of patients experiencing serious TEAE(s): Meniscus injury (PT, Safety population): (0.3%)
% of patients experiencing serious TEAE(s): Non-cardiac chest pain (PT, Safety population): (0.3%)
% of patients experiencing serious TEAE(s): Osteomyelitis (PT, Safety population): (0.3%)
% of patients experiencing serious TEAE(s): Pneumonia (PT, Safety population): (0.3%)
% of patients experiencing serious TEAE(s): Renal impairment (PT, Safety population): (0.3%)
% of patients experiencing serious TEAE(s): Wound infection (PT, Safety population): (0.3%)
Number of patients experiencing TEAE(s) leading to permanent treatment discontinuation: Angina unstable (PT, Safety population): 0
Number of patients experiencing TEAE(s) leading to permanent treatment discontinuation: Benign gastric neoplasm (PT, Safety population): 0
Number of patients experiencing TEAE(s) leading to permanent treatment discontinuation: Cardiopulmonary failure (PT, Safety population): 1
Number of patients experiencing TEAE(s) leading to permanent treatment discontinuation: Dizziness (PT, Safety population): 0
Number of patients experiencing TEAE(s) leading to permanent treatment discontinuation: Gallbladder cancer (PT, Safety population): 1
Number of patients experiencing TEAE(s) leading to permanent treatment discontinuation: Hypoglycaemic unconsciousness (PT, Safety population): 0
Number of patients experiencing TEAE(s) leading to permanent treatment discontinuation: Nausea (PT, Safety population): 0
Number of patients experiencing TEAE(s) leading to permanent treatment discontinuation: Pneumonia (PT, Safety population): 0
Number of patients experiencing TEAE(s) leading to permanent treatment discontinuation: Pregnancy (PT, Safety population): 1
Number of patients experiencing TEAE(s) leading to permanent treatment discontinuation: Weight increased (PT, Safety population): 0
Number of patients experiencing serious TEAE(s): Acute myocardial infarction (PT, Safety population): 0
Number of patients experiencing serious TEAE(s): Angina unstable (PT, Safety population): 0
Number of patients experiencing serious TEAE(s): Arteriosclerosis coronary artery (PT, Safety population): 0
Number of patients experiencing serious TEAE(s): Benign breast neoplasm (PT, Safety population): 0
Number of patients experiencing serious TEAE(s): Benign gastric neoplasm (PT, Safety population): 0
Number of patients experiencing serious TEAE(s): Benign prostatic hyperplasia (PT, Safety population): 1
Number of patients experiencing serious TEAE(s): Breast cancer (PT, Safety population): 0
Number of patients experiencing serious TEAE(s): Cardiac failure congestive (PT, Safety population): 1
Number of patients experiencing serious TEAE(s): Cardiopulmonary failure (PT, Safety population): 1
Number of patients experiencing serious TEAE(s): Chest discomfort (PT, Safety population): 1
Number of patients experiencing serious TEAE(s): Cholecystitis acute (PT, Safety population): 1
Number of patients experiencing serious TEAE(s): Cholecystitis chronic (PT, Safety population): 0
Number of patients experiencing serious TEAE(s): Gallbladder cancer (PT, Safety population): 1
Number of patients experiencing serious TEAE(s): Glaucoma (PT, Safety population): 1
Number of patients experiencing serious TEAE(s): Hypertension (PT, Safety population): 1
Number of patients experiencing serious TEAE(s): Hypoglycaemia (PT, Safety population): 1
Number of patients experiencing serious TEAE(s): Hypoglycaemic seizure (PT, Safety population): 0
Number of patients experiencing serious TEAE(s): Hypoglycaemic unconsciousness (PT, Safety population): 0
Number of patients experiencing serious TEAE(s): Intervertebral disc protrusion (PT, Safety population): 1
Number of patients experiencing serious TEAE(s): Kaposi’s sarcoma (PT, Safety population): 1
Number of patients experiencing serious TEAE(s): Meniscus injury (PT, Safety population): 1
Number of patients experiencing serious TEAE(s): Myocardial infarction (PT, Safety population): 0
Number of patients experiencing serious TEAE(s): Non-cardiac chest pain (PT, Safety population): 2
Number of patients experiencing serious TEAE(s): Osteoarthritis (PT, Safety population): 0
Number of patients experiencing serious TEAE(s): Osteomyelitis (PT, Safety population): 1
Number of patients experiencing serious TEAE(s): Pneumonia (PT, Safety population): 1
Number of patients experiencing serious TEAE(s): Renal impairment (PT, Safety population): 1
Number of patients experiencing serious TEAE(s): Scar (PT, Safety population): 0
Number of patients experiencing serious TEAE(s): Squamous cell carcinoma of the tongue (PT, Safety population): 0
Number of patients experiencing serious TEAE(s): Subdural haematoma (PT, Safety population): 0
Number of patients experiencing serious TEAE(s): Supraventricular tachycardia (PT, Safety population): 0
Number of patients experiencing serious TEAE(s): Tendonitis (PT, Safety population): 0
Number of patients experiencing serious TEAE(s): Wound infection (PT, Safety population): 1
% of patients experiencing TEAE(s) leading to permanent treatment discontinuation: Cardiac disorders (SOC, Safety population): (0.3%)
% of patients experiencing TEAE(s) leading to permanent treatment discontinuation: Neoplasms benign, malignant and unspecified (incl cysts and polyps) (SOC, Safety population): (0.3%)
% of patients experiencing TEAE(s) leading to permanent treatment discontinuation: Pregnancy, puerperium and perinatal conditions (SOC, Safety population): (0.3%)
% of patients experiencing serious TEAE(s): Cardiac disorders (SOC, Safety population): (0.5%)
% of patients experiencing serious TEAE(s): Eye disorders (SOC, Safety population): (0.3%)
% of patients experiencing serious TEAE(s): General disorders and administration site conditions (SOC, Safety population): (0.8%)
% of patients experiencing serious TEAE(s): Hepatobiliary disorders (SOC, Safety population): (0.3%)
% of patients experiencing serious TEAE(s): Infections and infestations (SOC, Safety population): (0.8%)
% of patients experiencing serious TEAE(s): Injury, poisoning and procedural complications (SOC, Safety population): (0.3%)
% of patients experiencing serious TEAE(s): Metabolism and nutrition disorders (SOC, Safety population): (0.3%)
% of patients experiencing serious TEAE(s): Musculoskeletal and connective tissue disorders (SOC, Safety population): (0.3%)
% of patients experiencing serious TEAE(s): Neoplasms benign, malignant and unspecified (incl cysts and polyps) (SOC, Safety population): (0.5%)
% of patients experiencing serious TEAE(s): Renal and urinary disorders (SOC, Safety population): (0.3%)
% of patients experiencing serious TEAE(s): Reproductive system and breast disorders (SOC, Safety population): (0.3%)
% of patients experiencing serious TEAE(s): Vascular disorders (SOC, Safety population): (0.3%)
Number of patients experiencing TEAE(s) leading to permanent treatment discontinuation: Cardiac disorders (SOC, Safety population): 1
Number of patients experiencing TEAE(s) leading to permanent treatment discontinuation: Gastrointestinal disorders (SOC, Safety population): 0
Number of patients experiencing TEAE(s) leading to permanent treatment discontinuation: Infections and infestations (SOC, Safety population): 0
Number of patients experiencing TEAE(s) leading to permanent treatment discontinuation: Investigations (SOC, Safety population): 0
Number of patients experiencing TEAE(s) leading to permanent treatment discontinuation: Neoplasms benign, malignant and unspecified (incl cysts and polyps) (SOC, Safety population): 1
Number of patients experiencing TEAE(s) leading to permanent treatment discontinuation: Nervous system disorders (SOC, Safety population): 0
Number of patients experiencing TEAE(s) leading to permanent treatment discontinuation: Pregnancy, puerperium and perinatal conditions (SOC, Safety population): 1
Number of patients experiencing serious TEAE(s): Cardiac disorders (SOC, Safety population): 2
Number of patients experiencing serious TEAE(s): Eye disorders (SOC, Safety population): 1
Number of patients experiencing serious TEAE(s): General disorders and administration site conditions (SOC, Safety population): 3
Number of patients experiencing serious TEAE(s): Hepatobiliary disorders (SOC, Safety population): 1
Number of patients experiencing serious TEAE(s): Infections and infestations (SOC, Safety population): 3
Number of patients experiencing serious TEAE(s): Injury, poisoning and procedural complications (SOC, Safety population): 1
Number of patients experiencing serious TEAE(s): Metabolism and nutrition disorders (SOC, Safety population): 1
Number of patients experiencing serious TEAE(s): Musculoskeletal and connective tissue disorders (SOC, Safety population): 1
Number of patients experiencing serious TEAE(s): Neoplasms benign, malignant and unspecified (incl cysts and polyps) (SOC, Safety population): 2
Number of patients experiencing serious TEAE(s): Nervous system disorders (SOC, Safety population): 0
Number of patients experiencing serious TEAE(s): Renal and urinary disorders (SOC, Safety population): 1
Number of patients experiencing serious TEAE(s): Reproductive system and breast disorders (SOC, Safety population): 1
Number of patients experiencing serious TEAE(s): Vascular disorders (SOC, Safety population): 1
% of patients experiencing TEAE(s) leading to permanent treatment discontinuation: Any TEAE leading to permanent treatment discontinuation (Safety population): (0.8%)
% of patients experiencing serious TEAE(s): Any serious TEAE (Safety population): (4.9%)
Number of patients experiencing TEAE(s) leading to permanent treatment discontinuation: Any TEAE leading to permanent treatment discontinuation (Safety population): 3
Number of patients experiencing serious TEAE(s): Any serious TEAE (Safety population): 18
Patients with any TEAE, number (Safety population): 191 n
Patients with any TEAE, percentage (Safety population): (52.3%)
